Reference: patent publication US20130095092A1

Molecular target: Mannose 6-phosphate receptor (M6P receptor) on human MPS IIIB (NaGlu deficient) fibroblasts (human), P11717
Assay: cell-based or functional assay

Sequence of Mannose 6-phosphate receptor (M6P receptor) on human MPS IIIB (NaGlu deficient) fibroblasts (human), P11717 (P11717 41-2491): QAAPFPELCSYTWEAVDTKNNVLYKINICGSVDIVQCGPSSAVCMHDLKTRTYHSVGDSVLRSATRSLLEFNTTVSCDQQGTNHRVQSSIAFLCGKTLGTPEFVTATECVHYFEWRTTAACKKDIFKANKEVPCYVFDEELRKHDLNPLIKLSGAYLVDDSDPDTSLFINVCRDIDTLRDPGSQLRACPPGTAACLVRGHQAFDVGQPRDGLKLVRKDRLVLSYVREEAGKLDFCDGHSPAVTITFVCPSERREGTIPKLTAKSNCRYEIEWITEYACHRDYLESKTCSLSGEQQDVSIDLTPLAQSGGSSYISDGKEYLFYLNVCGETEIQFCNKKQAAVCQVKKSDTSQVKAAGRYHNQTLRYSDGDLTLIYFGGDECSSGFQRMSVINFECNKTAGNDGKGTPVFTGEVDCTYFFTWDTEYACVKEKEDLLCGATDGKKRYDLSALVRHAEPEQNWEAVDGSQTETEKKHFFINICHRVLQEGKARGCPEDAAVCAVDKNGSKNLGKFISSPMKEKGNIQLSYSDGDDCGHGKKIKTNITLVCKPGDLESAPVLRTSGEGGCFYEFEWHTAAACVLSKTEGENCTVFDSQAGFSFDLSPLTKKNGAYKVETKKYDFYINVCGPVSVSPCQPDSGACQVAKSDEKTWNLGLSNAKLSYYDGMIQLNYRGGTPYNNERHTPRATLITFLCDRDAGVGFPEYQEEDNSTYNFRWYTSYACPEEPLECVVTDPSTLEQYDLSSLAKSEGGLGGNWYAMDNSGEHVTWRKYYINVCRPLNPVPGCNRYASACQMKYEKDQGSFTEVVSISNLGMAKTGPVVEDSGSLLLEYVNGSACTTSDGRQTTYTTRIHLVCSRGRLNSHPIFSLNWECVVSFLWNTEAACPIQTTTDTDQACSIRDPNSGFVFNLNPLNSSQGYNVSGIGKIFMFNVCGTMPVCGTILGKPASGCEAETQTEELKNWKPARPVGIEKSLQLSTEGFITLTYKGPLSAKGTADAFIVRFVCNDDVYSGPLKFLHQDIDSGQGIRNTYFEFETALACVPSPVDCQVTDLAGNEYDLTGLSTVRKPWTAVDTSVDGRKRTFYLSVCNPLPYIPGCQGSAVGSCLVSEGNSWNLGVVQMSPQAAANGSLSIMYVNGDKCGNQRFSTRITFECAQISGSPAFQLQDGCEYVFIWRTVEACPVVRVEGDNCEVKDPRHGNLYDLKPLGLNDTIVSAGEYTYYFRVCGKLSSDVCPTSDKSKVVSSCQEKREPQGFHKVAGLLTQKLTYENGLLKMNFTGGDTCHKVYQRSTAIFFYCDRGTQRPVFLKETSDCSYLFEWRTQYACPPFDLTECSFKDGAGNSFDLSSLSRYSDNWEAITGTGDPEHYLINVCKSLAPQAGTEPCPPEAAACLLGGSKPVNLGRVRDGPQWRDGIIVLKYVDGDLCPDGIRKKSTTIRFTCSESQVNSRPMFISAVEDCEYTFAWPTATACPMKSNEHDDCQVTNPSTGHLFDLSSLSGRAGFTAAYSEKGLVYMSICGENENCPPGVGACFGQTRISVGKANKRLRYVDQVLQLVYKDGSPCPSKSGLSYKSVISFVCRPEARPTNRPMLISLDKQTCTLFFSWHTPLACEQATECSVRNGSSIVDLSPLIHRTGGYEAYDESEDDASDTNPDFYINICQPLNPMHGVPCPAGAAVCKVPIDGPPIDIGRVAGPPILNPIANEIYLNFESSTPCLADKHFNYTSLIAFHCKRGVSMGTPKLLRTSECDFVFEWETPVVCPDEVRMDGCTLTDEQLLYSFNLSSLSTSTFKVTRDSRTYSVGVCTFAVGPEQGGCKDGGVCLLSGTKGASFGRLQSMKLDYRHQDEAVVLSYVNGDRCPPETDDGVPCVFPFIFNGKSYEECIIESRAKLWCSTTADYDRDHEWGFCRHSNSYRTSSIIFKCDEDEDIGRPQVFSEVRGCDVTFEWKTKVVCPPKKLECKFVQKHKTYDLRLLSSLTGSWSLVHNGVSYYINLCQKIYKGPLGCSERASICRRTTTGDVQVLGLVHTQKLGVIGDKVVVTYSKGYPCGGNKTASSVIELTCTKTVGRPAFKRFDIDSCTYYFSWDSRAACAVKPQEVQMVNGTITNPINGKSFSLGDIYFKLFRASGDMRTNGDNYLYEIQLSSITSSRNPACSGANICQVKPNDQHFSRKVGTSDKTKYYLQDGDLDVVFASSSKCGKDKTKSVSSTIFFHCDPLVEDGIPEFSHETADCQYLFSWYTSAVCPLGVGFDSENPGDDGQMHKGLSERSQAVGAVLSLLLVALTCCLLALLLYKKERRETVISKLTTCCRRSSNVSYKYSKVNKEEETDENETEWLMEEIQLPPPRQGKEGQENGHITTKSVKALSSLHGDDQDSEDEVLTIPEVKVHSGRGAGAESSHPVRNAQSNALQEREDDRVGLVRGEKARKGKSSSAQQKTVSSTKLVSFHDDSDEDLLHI

B1: recombinant human N-acetyl-alpha-D-glucosaminidase (rhNaGlu) produced from a transgenic avian (Gallus), P54802 24-743 (enzyme)
chain: DEAREAAAVRALVARLLGPGPAADFSVSVERALAAKPGLDTYSLGGGGAARVRVRGSTGVAAAAGLHRYLRDFCGCHVAWSGSQLRLPRPLPAVPGELTEATPNRYRYYQNVCTQSYSFVWWDWARWEREIDWMALNGINLALAWSGQEAIWQRVYLALGLTQAEINEFFTGPAFLAWGRMGNLHTWDGPLPPSWHIKQLYLQHRVLDQMRSFGMTPVLPAFAGHVPEAVTRVFPQVNVTKMGSWGHFNCSYSCSFLLAPEDPIFPIIGSLFLRELIKEFGTDHIYGADTFNEMQPPSSEPSYLAAATTAVYEAMTAVDTEAVWLLQGWLFQHQPQFWGPAQIRAVLGAVPRGRLLVLDLFAESQPVYTRTASFQGQPFIWCMLHNFGGNHGLFGALEAVNGGPEAARLFPNSTMVGTGMAPEGISQNEVVYSLMAELGWRKDPVPDLAAWVTSFAARRYGVSHPDAGAAWRLLLRSVYNCSGEACRGHNRSPLVRRPSLQMNTSIWYNRSDVFEAWRLLLTSAPSLATSPAFRYDLLDLTRQAVQELVSLYYEEARSAYLSKELASLLRAGGVLAYELLPALDEVLASDSRFLLGSWLEQARAAAVSEAEADFYEQNSRYQLTLWGPEGNILDYANKQLAGLVANYYTPRWRLFLEALVDSVAQGIPFQQHQFDKNVFQLEQAFVLSKQRYPSQPRGDTVDLAKKIFLKYYPRWVAGSW
modifications: here or on the partner: glycosylated; glycans carry mannose-6-phosphate (3.2 moles of M6P per mole of protein), glycosylation sites not stated
In the case of B1, the M6P inhibition assay: concentration of free M6P monosaccharide that inhibits uptake of 30 µg/mL rhNaGlu into MPS IIIB fibroblasts (enzymatic activity) is reported as > 0.03 mM, the M6P inhibition assay: inhibition of cellular uptake of 30 µg/mL rhNaGlu into MPS IIIB fibroblasts by 1 mM free M6P (% inhibition of uptake) is reported as > 90 and the NaGlu activity in MPS IIIB fibroblasts after 24 h uptake of rhNaGlu, relative to wild-type fibroblasts (% of wild-type activity) is reported as 50.
